Residue numbers refer to the chain shown, from its start.

Assay [1] has as its target T1, recombinant cynomolgus monkey CD38-ECD-C-his protein (cynomolgus monkey, UniProt Q5VAN0 45-301).
T1 construct: made in house; Q5VAN0 residues 43-301 (residue 44 deleted) with C-terminal 6-His; also called cynomolgus monkey CD38-C-His; recombinant cynomolgus monkey CD38 protein
Description: SPR, Fab as analyte, captured cynomolgus CD38-his.
Description: (§1) Surface plasmon resonance (SPR) was used to measure the binding affinities of the Fab fragments for human and cynomolgus monkey CD38. Affinities were measured on a Biacore T200 instrument (Cytiva Life Sciences) at 25° C. and analyzed with the Biacore T200 Evaluation Software (v3.1).
(§2) The affinities to human and cynomolgus monkey CD38 were assessed by immobilizing CD38 and using Fab fragments as analyte. […] Fab fragments were injected in single cycle kinetic at different concentrations ranging from 7.8 to 2000 nM, in HBS-EP+ buffer (Cytiva Life Sciences, catalog NO: BR100669) at a flow rate of 30 μl/min for 3 min on flow-path 1 and 2 (flow-path 1 being used as reference). Dissociation was monitored for 5 min. […] Experimental data were processed using the 1:1 Langmuir kinetic fitting model.

Assay [2] has as its target T2, Biotinylated Human CD38 Protein, Avitag, His Tag (Acrobiosystems CD8-H82E7) (human, UniProt P28907 43-300, biotinylated).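 Further: biacore T200 at 25 °C, single-cycle kinetics with Fab from 7.8 to 2000 nM, 3 min association then 5 min dissociation, fitted with a 1:1 Langmuir model.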
T2 construct: bought protein; also called biotinylated recombinant human CD38 protein; human CD38-avi-his
The experiment in a line: SPR, Fab as analyte, immobilised biotinylated human CD38. (In SPR one partner is held on a chip, and binding of the other changes the refractive index at the surface.)
Description: as §1, §2

B1: Anti-CD38-UCP01-B1 Fab (Fab, V domains shown)
VH: QVQLVQSGAEVKKPGSSVKVSCKASGGDFDQYYISWVRQAPGQGLEWMGRIIPTLGDSQYAQKFQGRVTITADESTSTAYMELSSLRSEDTAVYYCARAVIVSPYYYIYVFDVWGQGTLVTVSS
VL: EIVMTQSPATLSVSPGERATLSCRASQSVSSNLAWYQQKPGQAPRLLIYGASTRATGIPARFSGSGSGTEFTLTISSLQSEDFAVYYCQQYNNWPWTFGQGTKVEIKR
notes: Fab
In general, Kd refers to a measure of binding affinity in units of concentration. Consider B1, for which the Kd was found to be 102 nM in assay [1] and 193 nM in assay [2].

B2: Anti-CD38-UCP02-D1 Fab (Fab, V domains shown)
VH: B1 VH
VL: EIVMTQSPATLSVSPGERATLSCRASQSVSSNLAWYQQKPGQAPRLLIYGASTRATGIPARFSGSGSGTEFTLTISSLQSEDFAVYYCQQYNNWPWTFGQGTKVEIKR
notes: Fab
Take B2: the Kd in assay [1] stood at 78 nM; in assay [2], 133 nM.

B3: Anti-CD38-UCP02-B7 Fab (Fab, V domains shown)
VH: EVQLVESGGGLVKPGGSLRLSCAASGFSFNEAWMTWVRQAPGKGLEWVGRIKSYSDGGYTGYAAPVKGRFTISRDDSKNTLYLQMNSLKTEDTAVYYCARSPGIPYHYFDVWGQGTLVTVSS
VL: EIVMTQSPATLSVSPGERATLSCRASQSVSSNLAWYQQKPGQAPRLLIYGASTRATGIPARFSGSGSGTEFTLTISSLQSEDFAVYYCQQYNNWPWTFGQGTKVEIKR
notes: Fab
On to B3, for which, in assay [2], the affinity, expressed as Kd, was 1710 nM.

B4: Anti-CD38-UCP02-F5 Fab (Fab, V domains shown)
VH: QVQLVQSGAEVKKPGSSVKVSCKASGGVFSYYTISWVRQAPGQGLEWMGRIIPSLGATHYAQKFQGRVTITADESTSTAYMELSSLRSEDTAVYYCARSDSFYYAYYMDLWGQGTLVTVSS
VL: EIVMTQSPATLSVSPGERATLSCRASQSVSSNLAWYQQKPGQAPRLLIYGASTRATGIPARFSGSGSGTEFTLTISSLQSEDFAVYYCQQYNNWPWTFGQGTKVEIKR
notes: Fab
Regarding B4, the figures for the Kd in assay [1] and in assay [2] were 55.2 nM and 71.1 nM, respectively.

B5: Anti-CD38-UCP01-G1 Fab (Fab, V domains shown)
VH: QVQLVQSGAEVKKPGSSVKVSCKASGGGFSKYFITWVRQAPGQGLEWMGGVIPKIGYTSYAQKFQGRVTITADESTSTAYMELSSLRSEDTAVYYCARGSDDYASYSPLDSWGQGTLVTVSS
VL: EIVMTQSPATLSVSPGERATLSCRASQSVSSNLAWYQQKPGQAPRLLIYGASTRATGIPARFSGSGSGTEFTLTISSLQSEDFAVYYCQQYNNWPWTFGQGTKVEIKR
notes: Fab
Regarding B5, the Kd came to 283 nM in assay [1] and 1120 nM in assay [2].

B6: Anti-CD38-UCP02-F2 Fab (Fab, V domains shown)
VH: QVQLVQSGAEVKKPGSSVKVSCKASGDVFSLLAIGWVRQAPGQGLEWMGRIIPSLDATHYAQKFQGRVTITADESTSTAYMELSSLRSEDTAVYYCARGRDVLRSYYFDIWGQGTLVTVSS
VL: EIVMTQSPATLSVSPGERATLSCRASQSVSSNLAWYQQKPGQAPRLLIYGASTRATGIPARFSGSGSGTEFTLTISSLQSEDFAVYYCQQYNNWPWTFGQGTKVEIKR
notes: Fab
Regarding B6, the Kd in assay [1] is 14 nM; in assay [2] it was 14.2 nM.

B7: Anti-CD38-UCP02-B1 Fab (Fab, V domains shown)
VH: QVQLVQSGAEVKKPGSSVKVSCKASGGQFSFYAINWVRQAPGQGLEWMGEIIPDYGVTHYAQKFQGRVTITADESTSTAYMELSSLRSEDTAVYYCARWSYTYGIRYYYKLFDPWGQGTLVTVSS
VL: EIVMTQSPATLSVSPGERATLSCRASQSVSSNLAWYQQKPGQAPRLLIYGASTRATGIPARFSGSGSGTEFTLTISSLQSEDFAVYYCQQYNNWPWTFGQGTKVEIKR
notes: Fab
With B7, the Kd in assay [2] was 595 nM.

B8: Anti-CD38-UCP02-F6 Fab (Fab, V domains shown)
VH: EVQLLESGGGLVQPGGSLRLSCAASGFTFSFYDMSWVRQAPGKGLEWVSAVSLYGDETYYADSVKGRFTISRDNSKNTLYLQMNSLRAEDTAVYYCAREPVSYDYYGSYFDYWGQGTLVTVSS
VL: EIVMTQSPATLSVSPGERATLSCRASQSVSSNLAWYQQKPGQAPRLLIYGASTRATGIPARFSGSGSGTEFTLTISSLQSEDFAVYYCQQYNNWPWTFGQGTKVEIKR
notes: Fab
In assay [2], B8 yielded a Kd of 389 nM.

B9: Anti-CD38-UCP01-C2 Fab (Fab, V domains shown)
VH: QVQLVQSGAEVKKPGSSVKVSCKASGGYLGIYAISWVRQAPGQGLEWMGRIIPILGEADYAQKFQGRVTITADESTSTAYMELSSLRSEDTAVYYCARGGVWWDYWGQGTLVTVSS
VL: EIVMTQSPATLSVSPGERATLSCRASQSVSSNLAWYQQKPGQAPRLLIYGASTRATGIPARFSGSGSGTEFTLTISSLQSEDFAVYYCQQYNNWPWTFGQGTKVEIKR
notes: Fab
For the molecule B9, the values for the Kd in assay [1] and in assay [2] were 53.5 nM and 85.3 nM, respectively.

B10: Anti-CD38-UCP01-F1 Fab (Fab, V domains shown)
VH: QVQLVQSGAEVKKPGSSVKVSCKASGGVFSLYTITWVRQAPGQGLEWMGSIIPLLGDPEYAQKFQGRVTITADESTSTAYMELSSLRSEDTAVYYCARYPYPYGSKYFDIWGQGTLVTVSS
VL: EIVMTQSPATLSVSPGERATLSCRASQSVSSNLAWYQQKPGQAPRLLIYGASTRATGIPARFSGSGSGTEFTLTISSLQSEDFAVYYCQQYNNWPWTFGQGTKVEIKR
notes: Fab
On to B10, for which the Kd in assay [1] came out at 393 nM; in assay [2], 429 nM.

B11: Anti-CD38-UCP03-C3 Fab (Fab, V domains shown)
VH: QVQLVQSGAEVKKPGSSVKVSCKASGGKFSNYAISWVRQAPGQGLEWMGRIIPQIGDAAYAQKFQGRVTITADESTSTAYMELSSLRSEDTAVYYCARASFLYYSYYFDYWGQGTLVTVSS
VL: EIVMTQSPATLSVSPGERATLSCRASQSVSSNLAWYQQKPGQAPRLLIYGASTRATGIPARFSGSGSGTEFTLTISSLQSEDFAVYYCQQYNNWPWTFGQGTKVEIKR
notes: Fab
B11: the results for the Kd in assay [1] and in assay [2] were 465 nM and 117 nM, respectively.

B12: Anti-CD38-UCP02-C3 Fab (Fab, V domains shown)
VH: QVQLVQSGAEVKKPGSSVKVSCKASGDYFNNYAINWVRQAPGQGLEWMGRIIPFLDDANYAQKFQGRVTITADESTSTAYMELSSLRSEDTAVYYCARATSPLYSYYFDYWGQGTLVTVSS
VL: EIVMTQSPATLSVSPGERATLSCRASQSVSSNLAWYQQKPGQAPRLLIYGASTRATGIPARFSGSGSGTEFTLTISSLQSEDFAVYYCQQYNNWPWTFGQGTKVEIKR
notes: Fab
With B12, the Kd came out at 188 nM in assay [1] and 305 nM in assay [2].

B13: Anti-CD38-UCP03-C2 Fab (Fab, V domains shown)
VH: B11 VH with K28T, R50G, Q54A, I55F, A59G, A99G, S100R, F101V
VL: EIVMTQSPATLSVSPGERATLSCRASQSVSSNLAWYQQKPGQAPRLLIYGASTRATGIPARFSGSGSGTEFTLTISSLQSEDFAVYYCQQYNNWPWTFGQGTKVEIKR
notes: Fab
For the molecule B13, the Kd in assay [1] was 628 nM; in assay [2], 1390 nM.

B14: Anti-CD38-UCP01-H1 Fab (Fab, V domains shown)
VH: QVQLVQSGAEVKKPGSSVKVSCKASGDFFSGYAINWVRQAPGQGLEWMGRIIPLLGDTYYAQKFQGRVTITADESTSTAYMELSSLRSEDTAVYYCARSAAGWFAYWGQGTLVTVSS
VL: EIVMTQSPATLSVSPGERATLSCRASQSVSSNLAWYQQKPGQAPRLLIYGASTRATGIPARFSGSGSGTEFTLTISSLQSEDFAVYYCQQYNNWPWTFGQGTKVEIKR
notes: Fab
Take B14: the Kd in assay [1] stood at 352 nM; in assay [2], 437 nM.

B15: Anti-CD38-UCP02-A7 Fab (Fab, V domains shown)
VH: EVQLLESGGGLVQPGGSLRLSCAASGFTFSFYDMSWVRQAPGKGLEWVSTITLHGGDTYYADSVKGRFTISRDNSKNTLYLQMNSLRAEDTAVYYCARDPSYIYSTSGYFDYWGQGTLVTVSS
VL: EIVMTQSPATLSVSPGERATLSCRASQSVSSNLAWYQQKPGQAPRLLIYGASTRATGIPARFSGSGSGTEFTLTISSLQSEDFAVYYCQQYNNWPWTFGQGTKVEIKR
notes: Fab
As for B15, the Kd in assay [2] worked out at 71.1 nM.

B16: Anti-CD38-UCP01-E2 FAB (Fab, V domains shown)
VH: QVQLVQSGAEVKKPGSSVKVSCKASGGSFSNYAIGWVRQAPGQGLEWMGRIIPVFGSAHYAQKFQGRVTITADESTSTAYMELSSLRSEDTAVYYCARGLGYYLYSSYYFDIWGQGTLVTVSS
VL: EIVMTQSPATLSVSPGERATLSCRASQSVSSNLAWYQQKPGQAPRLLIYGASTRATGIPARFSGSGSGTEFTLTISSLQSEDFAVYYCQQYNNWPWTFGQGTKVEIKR
notes: Fab; also called anti-CD38-E2; anti-CD38-E2 Fab
For the molecule B16, the figures for the Kd in assay [1] and in assay [2] were 89 nM and 110 nM, respectively.

B17: Anti-CD38-UCP02-H1 Fab (Fab, V domains shown)
VH: QVQLVQSGAEVKKPGSSVKVSCKASGDKFNTYAISWVRQAPGQGLEWMGGITPRYDYAHYAQKFQGRVTITADESTSTAYMELSSLRSEDTAVYYCARSWGFRAGYLDYWGQGTLVTVSS
VL: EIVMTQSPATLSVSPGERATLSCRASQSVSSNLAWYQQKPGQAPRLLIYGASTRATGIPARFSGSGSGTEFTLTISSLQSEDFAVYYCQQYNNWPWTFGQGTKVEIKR
notes: Fab
Consider B17, for which the figures for the Kd in assay [1] and in assay [2] were 2.7 nM and 154 nM, respectively.

B18: Anti-CD38-UCP01-D1 Fab (Fab, V domains shown)
VH: QVQLVQSGAEVKKPGSSVKVSCKASGGIFNGYLISWVRQAPGQGLEWMGGIIPVNGLADYAQKFQGRVTITADESTSTAYMELSSLRSEDTAVYYCARTIGRYIIAFDYWGQGTLVTVSS
VL: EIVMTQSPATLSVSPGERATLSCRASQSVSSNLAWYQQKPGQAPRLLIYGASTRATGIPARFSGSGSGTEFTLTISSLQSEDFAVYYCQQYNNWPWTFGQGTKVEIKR
notes: Fab
Regarding B18, in assay [1], the binding result is on record as “no binding”. Besides, binding in assay [2] was put at a Kd of 666 nM.

B19: Anti-CD38-UCP02-D5 Fab (Fab, V domains shown)
VH: QVQLVQSGAEVKKPGSSVKVSCKASGGIFSVHAIHWVRQAPGQGLEWMGEIIPVIGEADYAQKFQGRVTITADESTSTAYMELSSLRSEDTAVYYCAREQYYYALGGGFDYWGQGTLVTVSS
VL: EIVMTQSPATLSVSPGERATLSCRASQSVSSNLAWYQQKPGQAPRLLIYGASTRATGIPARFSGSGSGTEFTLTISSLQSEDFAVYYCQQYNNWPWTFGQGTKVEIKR
notes: Fab
As for B19, the Kd in assay [1] is 33.5 nM; in assay [2], 192 nM.

B20: Anti-CD38-UCP02-E5 Fab (Fab, V domains shown)
VH: QVQLVQSGAEVKKPGSSVKVSCKASGGGFRHYFISWVRQAPGQGLEWMGGIIPAAATPYYAQKFQGRVTITADESTSTAYMELSSLRSEDTAVYYCARGYWHWFDYWGQGTLVTVSS
VL: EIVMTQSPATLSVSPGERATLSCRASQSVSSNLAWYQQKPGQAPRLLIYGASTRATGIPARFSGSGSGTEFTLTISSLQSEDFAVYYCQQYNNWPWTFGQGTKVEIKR
notes: Fab
B20 yielded a Kd in assay [2] of 0.03 nM.

B21: Anti-CD38-UCP03-H5 Fab (Fab, V domains shown)
VH: QVQLVQSGAEVKKPGSSVKVSCKASGGLFSFYAISWVRQAPGQGLEWMGGIIPFFGEPQYAQKFQGRVTITADESTSTAYMELSSLRSEDTAVYYCARGSYRFDVWGQGTLVTVSA
VL: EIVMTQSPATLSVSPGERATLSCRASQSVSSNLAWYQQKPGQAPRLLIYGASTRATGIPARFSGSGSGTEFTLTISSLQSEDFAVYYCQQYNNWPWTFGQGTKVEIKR
notes: Fab
As for B21, the Kd in assay [1] worked out at 11 nM; in assay [2] it was 142 nM.

Values taken from patent US20240132615A1 (ICHNOS SCIENCES, published 2024).
